According to PMC3679265 (Biochimica et biophysica acta, 2013):
Numbering of substitutions follows the chain as printed. Names may count otherwise.

B1: human galactose-1-phosphate uridylyltransferase p.F171S (enzyme, UniProt P07902 1-379, looked up)
chain: MSRSGTDPQQRQQASEADAAAATFRANDHQHIRYNPLQDEWVLVSAHRMKRPWQGQVEPQLLKTVPRHDPLNPLCPGAIRANGEVNPQYDSTFLFDNDFPALQPDAPSPGPSDHPLFQAKSARGVCKVMCFHPWSDVTLPLMSVPEIRAVVDAWASVTEELGAQYPWVQISENKGAMMGCSNPHPHCQVWASSFLPDIAQREERSQQAYKSQHGEPLLMEYSRQELLRKERLVLTSEHWLVLVPFWATWPYQTLLLPRRHVRRLPELTPAERDDLASIMKKLLTKYDNLFETSFPYSMGWHGAPTGSEAGANWNHWQLHAHYYPPLLRSATVRKFMVGYEMLAQAQRDLTPEQAAERLRALPEVHYHLGQKDRETATIA
B2: human galactose-1-phosphate uridylyltransferase p.D28Y (enzyme, UniProt P07902 1-379, looked up)
chain: B1 chain with D28Y, S171F
B3: human galactose-1-phosphate uridylyltransferase p.F194L (enzyme, UniProt P07902 1-379, looked up)
chain: B1 chain with S171F, F194L
B4: human galactose-1-phosphate uridylyltransferase p.L74P (enzyme, UniProt P07902 1-379, looked up)
chain: B1 chain with L74P, S171F
B5: human galactose-1-phosphate uridylyltransferase p.R333G (enzyme, UniProt P07902 1-379, looked up)
chain: B1 chain with S171F, R333G

Tests used:
[1] = biological target: the molecule itself; test: cross-linking
[2] = biological target: the molecule itself; test: SEC

Protein | stoichiometry N [1] | stoichiometry N [2]
B1 | 2 | 
B2 |  | 2
B3 | 2 | 
B4 |  | 2
B5 | 2 | 
